Data: patent publication US20220282255, “APTAMER FOR TGF-BETA1 AND USE OF SAME” (RIBOMIC INC., published 2022)
Where a chain is given by its changes, count along the chain named.

B1: SEQ ID NO: 5 (ssRNA)
RNA: GGGAUCCGCAUCUAGAGUACAUCGUGGCGGGAAAGCCGCCCCAUUCUCUCGGGUCCUAGAAACGUCUACUGAAGCUAUCA
modifications: 2'-F all pyrimidines (U,C)
B2: SEQ ID NO: 11 (ssRNA)
RNA: GGGAUCCGCAUCUAGAGUACCGCGUGAGCGGCGUCUUGCUAUGACGUAAAGAAUCGUUACAACGUCUACUGAAGCUAUCA
modifications: 2'-F all pyrimidines (U,C)
B3: SEQ ID NO: 18 (ssRNA)
RNA: GGGAGAACUUGGAGCUCCCCCUCGCACUUAAUGGGUUCUGUGGCUGGAGAAAGUGCGACGUCAGUC
modifications: 2'-F all pyrimidines (U,C)
B4: SEQ ID NO: 20 (ssRNA)
RNA: GGGAGAACUUGGAGCUGGUCCGGAAACUGGAUUCUCUCUAAAAGGGGUACCAGUGCGACGUCAGUC
modifications: 2'-F all pyrimidines (U,C)
B5: SEQ ID NO: 22 (ssRNA)
RNA: GGGAGAACUUGGAGCUUGACGGCGCUACAUUAUGCUCCAACGGUACUUUAUAGUGCGACGUCAGUC
modifications: 2'-F all pyrimidines (U,C)
B6: SEQ ID NO: 28 (ssRNA)
RNA: GGGAAUGCACUAGUGUUCAAUAAACACUAAGUGAUCCUCCUGCAAGCUAUGAAGAACUUAACGGCUCGUAAAGCUUGCACGUCGAGUCAG
modifications: 2'-F all pyrimidines (U,C)
B7: SEQ ID NO: 36 (ssRNA)
RNA: GGGAGAACUUGGAGCUCCUGAAUAAGGGAGGGGAGACUUGUGGAGGGCAAAAGUGCGACGUCAGUC
modifications: 2'-F all pyrimidines (U,C)
B8: SEQ ID NO: 35 (ssRNA)
RNA: B7 RNA with A51G
modifications: 2'-F all pyrimidines (U,C)
B9: SEQ ID NO: 37 (ssRNA)
RNA: B7 RNA with A44U, A51G
modifications: 2'-F all pyrimidines (U,C)
B10: SEQ ID NO: 38 (ssRNA)
RNA: B7 RNA with A29U, A51G
modifications: 2'-F all pyrimidines (U,C)
B11: SEQ ID NO: 19 (ssRNA)
RNA: GGGAGAACUUGGAGCUCCCCCUCGCAUUCGGAUUAAUUUGUGACUGCAUUGAGUGCGACGUCAGUC
modifications: 2'-F all pyrimidines (U,C)
B12: SEQ ID NO: 4 (ssRNA)
RNA: GGGAUCCGCAUCUAGAGUACUAAGGGUGGGGAGACUUGGGCCGGGCAGUCAGACGCGUGAAACGUCUACUGAAGCUAUCA
modifications: 2'-F all pyrimidines (U,C)

Biological target: T1, TGF-β1 (Homo sapiens, UniProt P01137 P01137:279-390)
T1 sequence (P01137 279-390, one chain of several): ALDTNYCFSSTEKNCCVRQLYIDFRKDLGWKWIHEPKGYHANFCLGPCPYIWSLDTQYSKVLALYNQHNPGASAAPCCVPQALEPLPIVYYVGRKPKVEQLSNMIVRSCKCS
Assay: SPR; ++
Conditions: tags: Recombinant Human TGF-β1, Peprotech; chain copies: 2 (homodimer, inferred)

Binder | binding result
B1 | binds
B2 | binds
B3 | binds
B4 | binds
B5 | binds
B6 | binds

Biological target: T1, TGF-β1
Assay: SPR; receptor-binding inhibition, 4 nM:4 nM
Conditions: tags: Recombinant Human TGF-β1, Peprotech; chain copies: 2 (homodimer, inferred)
Experimental: (§1) Measurement of Inhibitory Activity of Aptamer Against TGF-β1-2 Whether or not the nucleic acids of SEQ ID NOs: 6, 9, 19, 21, 26 inhibit the binding of TGF-β1 to the TGF-β receptor was evaluated by surface plasmon resonance method. For the measurement, Biacore T200 manufactured by GE Healthcare was used, and the measurement was performed by the method shown below. About 1500 RU of protein A was immobilized on the surface of a sensor chip of CM4 chip by using an amine coupling kit. 20 μL of Fc fusion TRII receptor (R&D) adjusted to 30 nM was injected as an analyte at a flow rate of 20 μL/min. As a result, the Fc fusion TRII receptor was immobilized on the surface of the sensor chip of the CM4 chip via protein A. Furthermore, a mixed solution of TGF-β1 (4 nM) or TGF-β1 (10 nM), and nucleic acid (30 nM) was injected. Solution A was used as the running buffer. Based on the RU value of a sample injected with TGF-β1 alone and the RU value before injection of TGF-β1, the effect of suppressing an increase in the RU value when TGF-β1 was injected in the presence of nucleic acid was calculated as the effect of inhibiting the binding of TGF-β1 to the TRII receptor.
(§2) The nucleic acids of SEQ ID NOs: 42-48 used were chemically synthesized and purified by HPLC. Whether or not these nucleic acids inhibit the binding of TGF-β1 to the TGF-β receptor was determined by injecting a mixed solution of TGF-β1 (4 nM) and nucleic acid (4 nM) in the same manner as in Example 4, and evaluating by the surface plasmon resonance method.

Binder | binding signal [% inhibition]
GGCAUAAGGGAGGGGAGACUUGUGGUGGGCAAG (ssRNA, 2'-F all pyrimidines (U,C)) [SEQ ID NO: 45] | 99.2
GGCAUAAGGGUGGGGAGACUUGUGGUGGGCAAG (ssRNA, 2'-F all pyrimidines (U,C)) [SEQ ID NO: 46] | 99.2
GGCAUAAGGGCGGGGAGACUUGUGGUGGGCAAG (ssRNA, 2'-F all pyrimidines (U,C)) [SEQ ID NO: 47] | 99.2
GGCAUAAGGGUGGGGAGACUUGUGGAGGGCAAG (ssRNA, 2'-F all pyrimidines (U,C)) [SEQ ID NO: 43] | 99
GGCAUAAGGGCGGGGAGACUUGUGGAGGGCAAG (ssRNA, 2'-F all pyrimidines (U,C)) [SEQ ID NO: 44] | 98.7
GGCAUAAGGGAGGGGAGACUUGUGGCGGGUAAA (ssRNA, 2'-F all pyrimidines (U,C)) [SEQ ID NO: 48] | 93.5

Biological target: T1, TGF-β1
Assay: cell_activity; 80 pM:20 nM
Conditions: tags: Recombinant Human TGF-β1, Peprotech; chain copies: 2 (homodimer, inferred); G4 (predicted)
Experimental: (§3) Whether the nucleic acids of SEQ ID NOs: 4-13, 17-22, 26-28 inhibit the activity of TGF-β1 was evaluated by a cell assay system that monitors Smad signaling pathway known to be activated by the stimulation of TGF-β. To be specific, photinus luciferase equipped with SBE (Smad-binding element) in the promoter region was used as a reporter (pGL4.48[luc2P/SBE/Hygro] Vector, Promega KK). Together with this SBE-induced photinus luciferase reporter plasmid, a renillaluciferase expression plasmid (pGL4.74[hRluc/TK] Vector, Promega KK) was mixed at a ratio of 20:1 as a standardized control for transfection efficiency, and transfected into HEK293 cells. The transfected HEK293 cells were re-seeded in a 96-well plate and cultured until confluent. TGF-β1 and a mixture of nucleic acid aptamers of SEQ ID NOs: 4-13, 17-22, 26-28 synthesized using T7 RNA polymerase (Y639F) were added thereto to respective final concentrations of 80 pM, 20 nM, and the cells were cultured for 3 hr. Thereafter, the expression levels of photinus luciferase and renillaluciferase were confirmed using Dual-Luciferase (registered trade mark) Reporter Assay System (Promega KK). The measurement value of photinus luciferase in each sample was corrected with the measured value of renillaluciferase, and the relative expression level of each sample was calculated by setting the ratio of photinus luciferase and renillaluciferase in a sample free of addition of TGF-β1 as 1. […] When a nucleic acid pool of 35N, 40N or 50N (SEQ ID NO: 14, 1, 23) was used as a negative control and a known TGF-β antibody (R&D, MAB1835) was used as a positive control, the same treatment and measurement were performed.
Whether or not these nucleic acids inhibit the activity of TGF-β1 was evaluated by a luciferase reporter assay similar to that in Example 4, as in Example 1.

Binder | activity [% inhibition]
B7 | 101
B8 | 100
B9 | 100
B10 | 100

Biological target: T1, TGF-β1
Assay: cell_activity; SBE-luciferase HEK293, 80 pM:20 nM
Conditions: tags: Recombinant Human TGF-β1, Peprotech; chain copies: 2 (homodimer, inferred)
Experimental: as §3

Binder | activity [% inhibition]
B11 | 91
B12 | 63

Biological target: T1, TGF-β1
Assay: SPR; receptor-binding inhibition, 4 nM:4 nM
Conditions: tags: Recombinant Human TGF-β1, Peprotech; chain copies: 2 (homodimer, inferred)
Remark: another data set of the same source
Experimental: as §1
as §2, with “42(2-1)-42(2-8)” for “42-48”, “method. Whether or not these nucleic acids inhibit the activity of TGF-β1 was evaluated by adding to the final concentrations of TGF-β1 (80 pM) and nucleic acid (312.5 pM), and by a luciferase reporter assay as in Example 4.” for “method.”

Binder | binding signal [% inhibition]
GGCAUAAGGGAGGGGAGACUUGUGGAGGGCAAG (ssRNA, 2'-OMe at A4, A11; 2'-F all pyrimidines) [SEQ ID NO: 42(2-3)] | 70.7
GGCAUAAGGGAGGGGAGACUUGUGGAGGGCAAG (ssRNA, 2'-OMe at A11, A16; 2'-F all pyrimidines) [SEQ ID NO: 42(2-4)] | 84.2
GGCAUAAGGGAGGGGAGACUUGUGGAGGGCAAG (ssRNA, 2'-OMe at A11, G17; 2'-F all pyrimidines) [SEQ ID NO: 42(2-5)] | 75.6
GGCAUAAGGGAGGGGAGACUUGUGGAGGGCAAG (ssRNA, 2'-OMe at A11, A26; 2'-F all pyrimidines) [SEQ ID NO: 42(2-1)] | 75.2
GGCAUAAGGGAGGGGAGACUUGUGGAGGGCAAG (ssRNA, 2'-OMe at A11, G33; 2'-F all pyrimidines) [SEQ ID NO: 42(2-8)] | 83
GGCAUAAGGGAGGGGAGACUUGUGGAGGGCAAG (ssRNA, 2'-OMe at A11, A31; 2'-F all pyrimidines) [SEQ ID NO: 42(2-6)] | 81.8
GGCAUAAGGGAGGGGAGACUUGUGGAGGGCAAG (ssRNA, 2'-OMe at A11, A32; 2'-F all pyrimidines) [SEQ ID NO: 42(2-7)] | 78.9
GGCAUAAGGGAGGGGAGACUUGUGGAGGGCAAG (ssRNA, 2'-OMe at G1, A11; 2'-F all pyrimidines) [SEQ ID NO: 42(2-2)] | 76

Biological target: T1, TGF-β1
Assay: cell_activity; 80 pM:312.5 pM
Conditions: tags: Recombinant Human TGF-β1, Peprotech; chain copies: 2 (homodimer, inferred)
Experimental: as §3
Whether or not these nucleic acids inhibit the activity of TGF-β1 was evaluated by adding to the final concentrations of TGF-β1 (80 pM) and nucleic acid (312.5 pM), and by a luciferase reporter assay as in Example 4.

Binder | activity [% inhibition]
GGCAUAAGGGAGGGGAGACUUGUGGUGGGCAAG (ssRNA, 2'-F all pyrimidines (U,C)) [SEQ ID NO: 45] | 65.5
GGCAUAAGGGUGGGGAGACUUGUGGUGGGCAAG (ssRNA, 2'-F all pyrimidines (U,C)) [SEQ ID NO: 46] | 57.3
GGCAUAAGGGCGGGGAGACUUGUGGUGGGCAAG (ssRNA, 2'-F all pyrimidines (U,C)) [SEQ ID NO: 47] | 70.3
GGCAUAAGGGUGGGGAGACUUGUGGAGGGCAAG (ssRNA, 2'-F all pyrimidines (U,C)) [SEQ ID NO: 43] | 71.5
GGCAUAAGGGCGGGGAGACUUGUGGAGGGCAAG (ssRNA, 2'-F all pyrimidines (U,C)) [SEQ ID NO: 44] | 69.4
GGCAUAAGGGAGGGGAGACUUGUGGCGGGUAAA (ssRNA, 2'-F all pyrimidines (U,C)) [SEQ ID NO: 48] | 63.9

Biological target: T1, TGF-β1
Assay: cell_activity; 80 pM:312.5 pM
Conditions: tags: Recombinant Human TGF-β1, Peprotech; chain copies: 2 (homodimer, inferred)
Remark: another data set of the same source
Experimental: as §3, with “TGF-β1 and a mixture of nucleic acid aptamers of SEQ ID NOs: 4-13, 17-22, 26-28 synthesized using T7 RNA polymerase (Y639F) were added thereto to respective final concentrations of 80 pM, 20 nM, and the cells were cultured for 3 hr.” left out
as §2, with “42(2-1)-42(2-8)” for “42-48”

Binder | activity [% inhibition]
GGCAUAAGGGAGGGGAGACUUGUGGAGGGCAAG (ssRNA, 2'-OMe at A4, A11; 2'-F all pyrimidines) [SEQ ID NO: 42(2-3)] | 66
GGCAUAAGGGAGGGGAGACUUGUGGAGGGCAAG (ssRNA, 2'-OMe at A11, A16; 2'-F all pyrimidines) [SEQ ID NO: 42(2-4)] | 64
GGCAUAAGGGAGGGGAGACUUGUGGAGGGCAAG (ssRNA, 2'-OMe at A11, G17; 2'-F all pyrimidines) [SEQ ID NO: 42(2-5)] | 62
GGCAUAAGGGAGGGGAGACUUGUGGAGGGCAAG (ssRNA, 2'-OMe at A11, A26; 2'-F all pyrimidines) [SEQ ID NO: 42(2-1)] | 61
GGCAUAAGGGAGGGGAGACUUGUGGAGGGCAAG (ssRNA, 2'-OMe at A11, G33; 2'-F all pyrimidines) [SEQ ID NO: 42(2-8)] | 72
GGCAUAAGGGAGGGGAGACUUGUGGAGGGCAAG (ssRNA, 2'-OMe at A11, A31; 2'-F all pyrimidines) [SEQ ID NO: 42(2-6)] | 72
GGCAUAAGGGAGGGGAGACUUGUGGAGGGCAAG (ssRNA, 2'-OMe at A11, A32; 2'-F all pyrimidines) [SEQ ID NO: 42(2-7)] | 78
GGCAUAAGGGAGGGGAGACUUGUGGAGGGCAAG (ssRNA, 2'-OMe at G1, A11; 2'-F all pyrimidines) [SEQ ID NO: 42(2-2)] | 66
